Reference: patent US20160251419A1 (ROCKEFELLER UNIVERSITY, published 2016)
Values belong to the binder of their own block, whether it stands above or below them.

Tests used:
[1] = target: T1, amyloid-β Aβ(M1-42) peptide, structures along the aggregation pathway (Aβ1-42 protofibrils); assay: dot blot of aggregation time points (FIG. 18)
T1 construct: Expressed in E. coli
Source text: (A) Aβ₁₋₄₂ aggregation in a thioflavin T fluorescence assay guided sample collection (red circles) for a dot blot assay. (B) Samples from these time points were spotted on PVDF membranes and blotted with an anti-Aβ mAb to detect total Aβ₁₋₄₂, or with 4a8.e11, 3f2.e10, or 7b6.b12. (C) Bar graph showing quantitation of 4a8.e11 reactive material at indicated timepoints. (D) Bar graph showing quantitation of 3f2.e10 reactive material at indicated timepoints. (E) Bar graph showing quantitation of 7b6.b12 reactive material at indicated timepoints. The spots were quantified with ImageJ and normalized to total Aβ₁₋₄₂.
For kinetic experiments, aliquots of the purified Aβ42 were resuspended in 6M guanidinium hydrochloride and subjected to gel filtration on a Superdex Peptide column in 20 mM sodium phosphate buffer, pH 8, with 200 μM EDTA. The monomer-containing peak was then lyophilized and subjected to a second round of resuspension in 6M guanidinium hydrochloride and gel filtration on a Superdex Peptide column in 20 mM sodium phosphate buffer, pH 8, with 200 μM EDTA. […] Fluorescence measurements were made at regular intervals using FlexStation III (Molecular Devices) with excitation and emission at 440 and 480 nm, respectively. Each experimental point is the mean of the fluorescence signal of 6 wells containing aliquots of the same solution. […]

[2] = target: Recombinant Aβ1-42 (rAβ1-42 peptides) in the Thioflavin T fibril formation assay (UniProt P05067 672-713); assay: cell-based or functional assay
Sequence of Recombinant Aβ1-42 (rAβ1-42 peptides) in the Thioflavin T fibril formation assay (P05067 672-713 limits assumed): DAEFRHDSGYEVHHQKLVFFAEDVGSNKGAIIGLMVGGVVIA

T1 sequence (peptide, as listed by the source): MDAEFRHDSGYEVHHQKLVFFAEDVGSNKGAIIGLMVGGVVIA

binding result [1]: binds | T50 (time in minutes for 50% inhibition of fibril formation) [2]: 40.2 min
B1: monoclonal antibody 7b6.b12 (antibody, V domains shown)
VH: EVQLQESGAELVKPGASVKISCKVSGYTFTDHTIHWMKQRPEQGLEWIGYIYPRDGSTKYNEKFKGKATLTADKSSSTAYMQLNSLTSEDSAVYFCARPYDYAWFAYWGQGTLVTVSA
VL: DILLTQSPAILSVSPGERVSFSCRASQSIGTSIHWYQQRTNGSPRLLIKYASESISGIPSRFSGSGSGTDFTLSINSVESEDIADYYCQQSNSWPFTFGSGTKLEIK
notes: Mouse hybridoma mAb raised against NUCB1-capped hIAPP protofibrils; kappa light chain; also called mAb 7b6.b12

binding result [1]: binds | T50 (time in minutes for 50% inhibition of fibril formation) [2]: 37.9 min
B2: monoclonal antibody 4a8.e11 (antibody, V domains shown)
VH: EVQLQESGGGLVKPGGSLKLSCAASGFTFSDYGMHWVRQAPEKGLEWVAYISSGSSTVYCADTVKGRFTISRDNAKNTLFLQMTSLRSEDTAMYYCARRWGYFDYWGQGTTLTVSS
VL: DIKMTQSPSSMYASLGERVTFTCKASQDINSFLSWFQQKPGKSPKTLIYRANRLVDGVPSRFSGSGSGQDYSLTITSLEFEDMGIYYCLQYDEFPYTFGGGTKLEIK
notes: Mouse hybridoma mAb raised against NUCB1-capped hIAPP protofibrils; kappa light chain; also called mAb 4a8.e11

T50 (time in minutes for 50% inhibition of fibril formation) [2]: 43.2 min
B3: monoclonal antibody 5c9.a2 (antibody, V domains shown)
VH: EVQLQESGPVLVKPGASVKMSCKASGYTFTDYYMNWVKQSHGKSLEWIGVINPYNGGTSYNQKFKGKATLTVDKSSSTAYMELNSLTSEDSAVYYCASLRRRTDYFDYWGQGTTLTVSS
VL: DIVMTQSHKFMSTSVGDRVSITCKASQDVGTAVAWYQQKPGQSPKLLIYWASTRHTGVPDRFTGSGSGTDFTLTISNVQSEDLADYFCQQYSSYPLTFGAGTKLELK

T50 (time in minutes for 50% inhibition of fibril formation) [2]: 42.6 min
B4: monoclonal antibody 3f2.e10 (antibody, V domains shown)
VH: EVQLQESGGGLVQPKGSLKLSCAASGFSFNTYAMNWVRQAPGKGLEWVARIRSKSNNYATYYADSVKDRFTISRDDSESMLYLQMNNLKTEDTAMYYCVRLGAMDYWGQGTSVTVSS
VL: DIVMTQSQKFMSTSVGDRVSVTCKASQNVGTNVAWYQQKPGQSPKALIYSASYRYSGVPDRFTGSGSGTDFTLTISNVQSEDLAEYFCQQYNSYPLTFGAGTKLEL

T50 (time in minutes for 50% inhibition of fibril formation) [2]: 40.3 min
B5: monoclonal antibody 5a8.b11 (antibody, V domains shown)
VH: EVQLQESGPELVKPGASVKIPCKASGYTFTDYNMDWVKQSHGKSLEWIGDINPNNGGTIYNQKFKGKATLTVDKSSSTAYMELRSLTSEDTAVYYCARKGERGFDYWGQGTTLTVSS
VL: ENVLTQSPAIMSASLGEKVTMSCRASSSVNYMYWYQQKSDASPKLWIYYTSNLAPGVPARFSGSGSGNSYSLTISSMEGEDAATYYCQQFTSSPSTFGAGTKLELK

T50 (time in minutes for 50% inhibition of fibril formation) [2]: 60.7 min
B6: monoclonal antibody 4b1.h9 (antibody, V domains shown)
VH: EVQLQESGPVLVKPGASVKMSCKASGYTFTDYYMNWVKQSHGKSLEWIGVINPYNGGTSYNQKFKGKATLTVDKSSSTAYMELNSLTSEDSAVYYCARRRGYAMDYWGQGTSVTVSS
VL: DIQMTQSPASLSASVGETVTITCRASENIYSYLAWYQQKQGKSPQLLVYNAKTLAEGVPSRFSGSGSGTQFSLKINSLQPEDFGSYYCQHHYGTPYTFGGGTNLEIK
